Changes are numbered by the printed parent chain. Each block holds one binder with its values, some of them ahead of it.
Assays:
Experiment in all cases: cell-based or functional assay
Endotheliase-1 (ET1) = target: Endotheliase-1 (ET1)
MTSP-6 = target: MTSP-6
MTSP-10 = target: MTSP-10
MTSP-1 = target: T1, MTSP-1 (UniProt Q9Y5Y6 615-855, limits assumed)
T1 sequence (looked up): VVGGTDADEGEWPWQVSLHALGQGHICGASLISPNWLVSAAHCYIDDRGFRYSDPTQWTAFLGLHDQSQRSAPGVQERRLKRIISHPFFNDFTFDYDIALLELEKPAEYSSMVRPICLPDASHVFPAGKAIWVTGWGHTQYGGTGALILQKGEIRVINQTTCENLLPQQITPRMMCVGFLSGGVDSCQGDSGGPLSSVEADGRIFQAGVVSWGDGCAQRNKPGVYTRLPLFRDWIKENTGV

Trypsinogen-IV = target: T2, Trypsinogen-IV (UniProt P35030 81-304)
T2 sequence (looked up): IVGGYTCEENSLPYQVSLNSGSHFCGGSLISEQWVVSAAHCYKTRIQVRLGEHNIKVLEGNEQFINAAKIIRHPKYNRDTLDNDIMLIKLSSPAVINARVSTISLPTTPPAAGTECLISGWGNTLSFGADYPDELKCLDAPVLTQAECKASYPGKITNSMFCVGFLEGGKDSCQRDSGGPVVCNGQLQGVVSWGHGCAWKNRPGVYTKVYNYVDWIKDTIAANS

MTSP-7 = target: MTSP-7

activity against protease in selectivity screen (enzyme assay) (Endotheliase-1 (ET1)): < 5%
activity against protease in selectivity screen (enzyme assay) (MTSP-6): < 5%
activity against protease in selectivity screen (enzyme assay) (MTSP-10): < 5%
activity against protease in selectivity screen (enzyme assay) (MTSP-1): < 5%
activity against protease in selectivity screen (enzyme assay) (Trypsinogen-IV): < 5%
activity against protease in selectivity screen (enzyme assay) (MTSP-7): < 5%
B3: B5 IgG1 antibody (Fab B5 reformatted) (antibody, V domains shown)
VH: EVQLLESGGGLVQPGGSLRLSCAASGFTFSRYRMYWVRQAPGKGLEWVSSISPSGGDTRYADSVKGRFTISRDNSKNTLYLQMNSLRAEDTAVYYCARGGPRGNKYYFDYWGQGTLVTVSS
VL: SYELTQPPSVSVSLGQAANISCSGDRLGDKYTSWYQQQSGQSPVLVIYQDKKRPSGIPERFSGSSSGNTATLTISGAQAIDEAAYYCQAWATNVVFGAGTKLTVLG

activity against protease in selectivity screen (enzyme assay) (Endotheliase-1 (ET1)): < 5%
activity against protease in selectivity screen (enzyme assay) (MTSP-6): < 5%
activity against protease in selectivity screen (enzyme assay) (MTSP-10): < 5%
activity against protease in selectivity screen (enzyme assay) (Trypsinogen-IV): < 5%
activity against protease in selectivity screen (enzyme assay) (MTSP-7): < 5%
B5: F8 IgG1 antibody (Fab F8 reformatted) (antibody, V domains shown)
VH: B3 VH with R33H, Y35W, S50G, P53S, G55R, D57I, R59K
VL: DIQMTQSPGTLSLSPGERVTLSCRASQSVTSSDLAWYQQKPGQAPRLLISGASSRATGIPDRFSGSGSGTDFTLTISRLEPEDFAVYYCQQYGNSPGTFGQGTKVEIKR

activity against protease in selectivity screen (enzyme assay) (Endotheliase-1 (ET1)): < 5%
activity against protease in selectivity screen (enzyme assay) (MTSP-6): < 5%
activity against protease in selectivity screen (enzyme assay) (MTSP-10): < 5%
activity against protease in selectivity screen (enzyme assay) (MTSP-1): < 5%
activity against protease in selectivity screen (enzyme assay) (Trypsinogen-IV): < 5%
activity against protease in selectivity screen (enzyme assay) (MTSP-7): < 5%
B6: A2 IgG1 antibody (Fab A2 reformatted) (antibody, V domains shown)
VH: B3 VH
VL: DIQMTQSPSFLSAFVGDRVTITCRASQDIRSDLAWYQQTPGKAPKLLIYAASTLKDGAPSRFSGSGSGTEFTLTISSLHPEDLATYYCQHLNGHPAFGPGTKVNIQR

activity against protease in selectivity screen (enzyme assay) (Endotheliase-1 (ET1)): < 5%
activity against protease in selectivity screen (enzyme assay) (MTSP-6): < 5%
activity against protease in selectivity screen (enzyme assay) (MTSP-10): < 5%
activity against protease in selectivity screen (enzyme assay) (MTSP-1): < 5%
activity against protease in selectivity screen (enzyme assay) (Trypsinogen-IV): < 5%
activity against protease in selectivity screen (enzyme assay) (MTSP-7): < 5%
B7: C9 IgG1 antibody (Fab C9 reformatted) (antibody, V domains shown)
VH: B3 VH with R33P, Y35F, S50Y, P53S, D57F, R59G
VL: QSVLTQPASVSGSPGQSITISCTGTSSDVGHYNYVSWYQQHPGKAPKVMIYDVSSRPSGVSDRFSGSKSGNTASLAISGLQAEDEADYYCSSYTSGDTLYVFGTGTKVTVLG

The next lines start with the binder.

B1: D5 IgG1 antibody (Fab D5 reformatted) (antibody, V domains shown)
VH: EVQLLESGGGLVQPGGSLRLSCAASGFTFSRYDMHWVRQAPGKGLEWVSSISSSGGYTAYADSVKGRFTISRDNSKNTLYLQMNSLRAEDTAVYYCARGARGTSQGYWGQGTLVTVSS
VL: DIQMTQSPGTLSLSPGERGTLSCRASQFVSYSYLAWYQQKPGQAPRLLIYGASSRAKGIPDRFSGSGSGTDFTLTITRLEPEDFAVYYCQQYVPSVPWTFGQGTKVEVKR
activity against protease in selectivity screen (enzyme assay) (Endotheliase-1 (ET1)): < 5%
activity against protease in selectivity screen (enzyme assay) (MTSP-6): < 5%
activity against protease in selectivity screen (enzyme assay) (MTSP-10): < 5%
activity against protease in selectivity screen (enzyme assay) (MTSP-1): < 5%
activity against protease in selectivity screen (enzyme assay) (Trypsinogen-IV): < 5%
activity against protease in selectivity screen (enzyme assay) (MTSP-7): < 5%

B2: D2 IgG1 antibody (Fab D2 reformatted) (antibody, V domains shown)
VH: B3 VH
VL: DIQMTQSPSSLSASVGDRVTITCRASQTIDNYLNWYQQKPGKAPKLVVYAASTLQTRVPSRFSGSGSGTDFTLTIDSLKPEDFATYFCQQGFSNPWTFGQGTTVAMIR
activity against protease in selectivity screen (enzyme assay) (Endotheliase-1 (ET1)): < 5%
activity against protease in selectivity screen (enzyme assay) (MTSP-6): < 5%
activity against protease in selectivity screen (enzyme assay) (MTSP-10): < 5%
activity against protease in selectivity screen (enzyme assay) (MTSP-1): < 5%
activity against protease in selectivity screen (enzyme assay) (Trypsinogen-IV): < 5%
activity against protease in selectivity screen (enzyme assay) (MTSP-7): < 5%

B4: H10 IgG1 antibody (Fab H10 reformatted) (antibody, V domains shown)
VH: B3 VH
VL: not shown
activity against protease in selectivity screen (enzyme assay) (Endotheliase-1 (ET1)): < 5%
activity against protease in selectivity screen (enzyme assay) (MTSP-6): < 5%
activity against protease in selectivity screen (enzyme assay) (MTSP-10): < 5%
activity against protease in selectivity screen (enzyme assay) (Trypsinogen-IV): < 5%
activity against protease in selectivity screen (enzyme assay) (MTSP-7): < 5%
